B1: Cdc45 (natural protein, Drosophila melanogaster, UniProt O96989 1-575, looked up)
chain: MFVQDLRNDFYRQLVGKRILIVVNYDIDAICASRILQALFKYDHMLYTVVPIMGVTGLKRAYGEHQGDVKYVVLVNCGGCVDIVELLQPSDDVTFFICDSHRPLDVCNIYSDRQVCILGDASLEENIPAFETIFYDSEGEDEDEDESSDTEQQHDDSGAGESDQEDQAPRSRKLSRLERHEQRILKQRARRQWESERDRIMFEYTQFSYYGRSAALMVFELAWKLSKDNMDLLWWAIVGITEQLLLGKIESGAYTLELEQIQSHVSRLTNKTNDQNTMSASKITFENDLHLVLYRHWPVTESMRYSRYSSCQLKLWTLRGEKRLHELLLEMGLPLVHARQTYGAMDLVLRKEFFSMVERLAEKYDIADIVYGTFTLSYGYRSRYAAADYVYALLAIMESVKKHKTPEDCFLEASDALSRQHKQLLSAGIDQAKLLHAAVFRQVQSSLEARQVHSAGSFFYYVLQEEHAFFSYPYALGLLARFLLRGHVATSRARQASDLPLIASCPLNASEGMCLLVGIVPVREDSPRNFFGKAFEQAAQKSGVALLQDFFEPAVVQLRQSDLTRFLDSLTVLLA

Key:
Assay in all cases: negative-stain single-particle EM
[1] = target: T1, Mcm5 (Drosophila melanogaster, UniProt Q9VGW6 1-733)
T1 sequence (looked up): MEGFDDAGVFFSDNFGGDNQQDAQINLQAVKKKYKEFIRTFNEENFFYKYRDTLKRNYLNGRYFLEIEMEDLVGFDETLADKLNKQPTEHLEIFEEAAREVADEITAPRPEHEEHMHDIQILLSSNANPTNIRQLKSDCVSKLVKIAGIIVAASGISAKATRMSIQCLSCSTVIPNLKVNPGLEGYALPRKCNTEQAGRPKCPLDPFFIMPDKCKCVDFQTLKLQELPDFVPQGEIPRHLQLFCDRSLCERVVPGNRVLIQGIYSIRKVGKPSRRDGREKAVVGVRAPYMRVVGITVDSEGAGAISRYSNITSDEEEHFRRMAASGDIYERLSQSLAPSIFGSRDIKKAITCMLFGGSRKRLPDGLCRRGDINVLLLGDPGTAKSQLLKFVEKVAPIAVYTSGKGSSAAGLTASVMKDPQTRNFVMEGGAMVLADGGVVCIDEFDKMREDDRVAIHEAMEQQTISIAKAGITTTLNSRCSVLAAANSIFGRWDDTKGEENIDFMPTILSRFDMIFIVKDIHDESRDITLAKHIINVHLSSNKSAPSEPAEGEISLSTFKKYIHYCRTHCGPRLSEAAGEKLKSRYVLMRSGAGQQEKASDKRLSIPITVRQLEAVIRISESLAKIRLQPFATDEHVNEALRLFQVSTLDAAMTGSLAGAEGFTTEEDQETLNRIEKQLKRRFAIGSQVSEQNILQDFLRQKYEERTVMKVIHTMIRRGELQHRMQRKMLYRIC

[2] = target: B1
[3] = target: T2, Mcm2 (Drosophila melanogaster, UniProt P49735 1-887)
T2 sequence (looked up): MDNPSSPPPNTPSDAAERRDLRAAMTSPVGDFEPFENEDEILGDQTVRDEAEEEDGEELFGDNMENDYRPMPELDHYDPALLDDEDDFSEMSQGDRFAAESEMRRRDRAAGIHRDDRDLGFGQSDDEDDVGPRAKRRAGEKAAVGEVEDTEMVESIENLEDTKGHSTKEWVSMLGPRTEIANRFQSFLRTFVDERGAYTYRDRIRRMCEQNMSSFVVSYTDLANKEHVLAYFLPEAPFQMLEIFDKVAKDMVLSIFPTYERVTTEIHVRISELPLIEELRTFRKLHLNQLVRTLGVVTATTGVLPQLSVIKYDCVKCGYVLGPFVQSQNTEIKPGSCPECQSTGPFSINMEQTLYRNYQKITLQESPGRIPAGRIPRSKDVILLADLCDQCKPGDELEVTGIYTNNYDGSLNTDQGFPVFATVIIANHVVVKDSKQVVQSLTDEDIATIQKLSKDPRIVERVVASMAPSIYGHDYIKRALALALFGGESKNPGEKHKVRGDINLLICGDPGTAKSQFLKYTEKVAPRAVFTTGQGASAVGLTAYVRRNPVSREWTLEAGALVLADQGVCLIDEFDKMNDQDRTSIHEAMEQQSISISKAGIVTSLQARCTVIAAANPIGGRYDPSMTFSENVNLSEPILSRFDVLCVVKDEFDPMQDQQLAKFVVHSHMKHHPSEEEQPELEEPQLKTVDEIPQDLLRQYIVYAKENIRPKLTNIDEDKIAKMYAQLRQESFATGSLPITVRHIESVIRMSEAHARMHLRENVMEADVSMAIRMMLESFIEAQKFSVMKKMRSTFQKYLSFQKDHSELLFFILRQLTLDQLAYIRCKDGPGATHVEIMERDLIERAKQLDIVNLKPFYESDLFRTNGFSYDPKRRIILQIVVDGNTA

Binder	binding result [1]	binding result [2]	binding result [3]
Psf2 (natural protein, Drosophila melanogaster, UniProt Q9VQY9 1-203, looked up) MDPSIIEFIGEKCMISIIPNFSNEPLHLIYGPVGPFRAGFPVFVPLWMATHLRKQQKCRIVPPEWMDMDILEEIKEEEKRSKFFTKMPCEHYMVVAQLVMSTAPDDVPRCEELRTVIKDIFDIRESKLRTSIDAFIKGEGTYAKLDNLTLLEIHSVRPILPYSLDHIARYQRTATASQRDTSMLSASMAGSSSGPNSNSLFSQ	binds	binds	
B1			binds

Source: PMC4184033 (Nature structural & molecular biology, 2011)
